Our source for the Kd values is US20220251236A1 (Boehringer Ingelheim, published 2022).

The target of the assay is T1, Cyno CD3 E+G HuFc-6xHis (cynomolgus monkey).
T1 construct: also called cy CD3εγ-Fc; Recomb; Cyno CD3 εγ
In words: SPR (ProteOn XPR36), CD3εγ-Fc amine-coupled, bispecific as analyte, equilibrium fit, Example 4A. The procedure: The binding affinity of purified DLL3/CD3 bispecific constructs for recombinant human and cyno DLL3-ECD and Fc-fusion proteins of human and cyno CD3 εγ subunits was determined by Surface Plasmon Resonance (SPR), using a ProteOn XPR36 instrument (Bio-Rad). The running buffer and all dilutions (except where stated) were done in PBS-T-EDTA. The GLM sensor chip (Bio-Rad) was normalized and pre-conditioned as per the manufacturer's recommendations. The sensor chip was activated with equal mixture of EDC/s-NHS in the horizontal direction for 300 sec at a flow rate of 30 ul/min and immobilized with protein A/G (20 ug/ml in 10 mM acetate pH 4.5) in the horizontal direction for 300 sec at a flowrate of 30 ul/min resulting in ˜5000 RU of protein A/G on the surface. The sensor chip was deactivated with 1M ethanolamine HCl in the horizontal direction for 300 sec at a flowrate of 30 μl/min.
For binding kinetic determination to CD3, hu CD3εγ-Fc and cy CD3εγ-Fc (dissolved in pH 4.5 acetate) was immobilized directly onto the sensor surface through amine coupling for 140 sec at a flowrate of 30 μl/min vertically. The baseline was stabilized by injecting PBS-T-EDTA for 60 sec at a flowrate of 40 μl/min horizontally. The analyte (the bispecific molecule) was injected horizontally over the captured CD3εγ-Fc construct for 600 sec at a flowrate of 40 μl/min and a dissociation for 600 sec.
The inter spot (interactions with sensor surface) and blank (PBS-T-EDTA) were subtracted from the raw data.

T1 sequence (chain, as listed by the source limits assumed): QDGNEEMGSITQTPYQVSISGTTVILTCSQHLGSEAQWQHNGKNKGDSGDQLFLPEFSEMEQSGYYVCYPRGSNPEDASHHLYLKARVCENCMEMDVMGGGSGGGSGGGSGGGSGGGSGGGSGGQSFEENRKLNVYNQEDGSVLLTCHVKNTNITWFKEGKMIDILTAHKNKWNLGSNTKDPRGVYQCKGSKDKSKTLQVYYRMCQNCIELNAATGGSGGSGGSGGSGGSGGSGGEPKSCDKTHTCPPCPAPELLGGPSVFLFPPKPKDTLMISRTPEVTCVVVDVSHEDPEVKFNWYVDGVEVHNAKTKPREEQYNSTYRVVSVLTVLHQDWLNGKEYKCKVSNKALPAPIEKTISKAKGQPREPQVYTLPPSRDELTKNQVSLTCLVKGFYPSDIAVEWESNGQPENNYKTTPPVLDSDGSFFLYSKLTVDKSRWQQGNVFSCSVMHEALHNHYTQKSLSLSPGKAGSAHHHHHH

B1: DLL3#3/CD3#2 (bispecific antibody, human IgG1, kappa, lambda, L234A L235A)
chain 1: DIQMTQSPSAMSASVGDRVTITCRASQGISNYLVWFQQKPGKAPKRLIYAVSSLYSGVPSRFSGSGSGTEFTLTISSLQPEDFATYYCLQHDSYPYTFGQGTKLEIKRTVAAPSVFIFPPSDEQLKSGTASVVCLLNNFYPREAKVQWKVDNALQSGNSQESVTEQDSKDSTYSLSSTLTLSKADYEKHKVYACEVTHQGLSSPVTKSFNRGECGGGGSEGKSSGSGSESKSTEGKSSGSGSESKSTGGGGSQVQLVQSGAEVKKPGASVKVSCKASGYTFTSYYVHWVRQAPGQGLEWMVIINPGGGTTSYAQKFLGRVTMTRDTSTNTVYMELKSLRSEDTAVYYCARGEAVTGNYFYYGMDVWGQGTTVTVSSASTKGPSVFPLAPSSKSTSGGTAALGCLVKDYFPEPVTVSWNSGALTSGVHTFPAVLQSSGLYSLSSVVTVPSSSLGTQTYICNVNHKPSNTKVDKRVEPKSCDKTHTCPPCPAPEAAGGPSVFLFPPKPKDTLMISRTPEVTCVVVDVSHEDPEVKFNWYVDGVEVHNAKTKPREEQYNSTYRVVSVLTVLHQDWLNGKEYKCKVSNKALPAPIEKTISKAKGQPREPQVYTLPPSREEMTKNQVSLWCLVKGFYPSDIAVEWESNGQPENNYKTTPPVLDSDGSFFLYSKLTVDKSRWQQGNVFSCSVMHEALHNHYTQKSLSLSPG
chain 2: EAVVTQEPSLTVSPGGTVTLTCRSSTGAVTTSNYANWVQEKPGQLPRGLIGGTNKRAPWVPARFSGSLLGGKAALTLSGAQPEDEAEYFCALWYSNLWVFGGGTKLTVLGQPKAAPSVTLFPPSSEELQANKATLVCLISDFYPGAVKVAWKADGSPVNTGVETTTPSKQSNNKYAASSYLSLTPEQWKSHRSYSCQVTHEGSTVEKTVAPAECSGGGGSEGKSSGSGSESKSTEGKSSGSGSESKSTGGGGSEVQLVESGGGLVQPGGSLKLSCAASGFTFNTYAMNWVRQAPGKGLEWVARIRSKYINYATYYADSVKDRFTISRDDSKNTAYLQMNNLKTEDTAVYYCVRHGNFGNSYVSWFAYWGQGTLVTVSAASTKGPSVFPLAPSSKSTSGGTAALGCLVKDYFPEPVTVSWNSGALTSGVHTFPAVLQSSGLYSLSSVVTVPSSSLGTQTYICNVNHKPSNTKVDKRVEPKSCDKTHTCPPCPAPEAAGGPSVFLFPPKPKDTLMISRTPEVTCVVVDVSHEDPEVKFNWYVDGVEVHNAKTKPREEQYNSTYRVVSVLTVLHQDWLNGKEYKCKVSNKALPAPIEKTISKAKGQPREPQVYTLPPSREEMTKNQVSLSCAVKGFYPSDIAVEWESNGQPENNYKTTPPVLDSDGSFFLVSKLTVDKSRWQQGNVFSCSVMHEALHNRFTQKSLSLSPG
notes: Heterodimer of one DLL3 chain and one CD3 chain (scFab-Fc, knob-in-hole)
Regarding B1, the Kd was found to be 100 nM.
